{"source": "paper PMC5286830", "about": "“Prokaryotic ubiquitin-like protein remains intrinsically disordered when covalently attached to proteasomal target proteins” (BMC Structural Biology, 2017)", "binders": {"B1": {"name": "fluorescein-labeled CgluPup-Q30C variant (free) (natural protein, Corynebacterium glutamicum, UniProt Q8NQE0 1-64, looked up)", "chain": "MNAKQTQIMGGGGRDEDNAEDSAQASGQVC(fluorescein‑5‑maleimide)INTEGVDSLLDEIDGLLENNAEEFVRSYVQKGGE", "notes": "prokaryotic ubiquitin-like protein Pup, Corynebacterium glutamicum; also called CgluPup-Q30C-Fluorescein; free CgluPup-Q30C"}}, "target": "T1, Pup ligase CgluPafA-His6 (proteasome accessory factor A from Corynebacterium glutamicum) (Corynebacterium glutamicum, UniProt Q8NQE1 1-482)", "T1 construct": "Pup ligase PafA, Corynebacterium glutamicum; The anisotropy methods call the titrated protein only 'CgluPafA'", "T1 sequence (looked up)": "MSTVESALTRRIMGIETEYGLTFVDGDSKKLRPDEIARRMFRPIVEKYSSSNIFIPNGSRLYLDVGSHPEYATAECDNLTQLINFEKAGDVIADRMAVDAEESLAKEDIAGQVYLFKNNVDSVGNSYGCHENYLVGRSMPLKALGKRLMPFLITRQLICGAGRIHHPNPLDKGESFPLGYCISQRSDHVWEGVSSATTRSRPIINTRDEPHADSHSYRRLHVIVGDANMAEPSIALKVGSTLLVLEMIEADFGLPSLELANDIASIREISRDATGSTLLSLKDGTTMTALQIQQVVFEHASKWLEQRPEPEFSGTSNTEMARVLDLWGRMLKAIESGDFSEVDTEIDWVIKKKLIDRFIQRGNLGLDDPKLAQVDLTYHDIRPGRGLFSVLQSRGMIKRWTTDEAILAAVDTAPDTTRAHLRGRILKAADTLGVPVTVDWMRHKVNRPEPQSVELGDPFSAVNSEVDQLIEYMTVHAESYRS", "experiment": "fluorescence polarisation; fluorescence anisotropy on a Synergy BioTek plate reader; 12.5 nM CgluPup-Q30C-Fluorescein labeled substrate or free CgluPup with 0 to 30 uM CgluPafA; 50 mM Tris pH 8.04 (RT), 150 mM NaCl, 0.5 mM EDTA, 0.001% Tween-20", "details": "both partners purified"}
{"binder": "B1", "values": [{"measurement": "Kd", "result": "1.82 ± 0.18", "unit": "µM"}]}
